From the supplement of paper PMC9170038

System: MS2 coat protein
Assay: apparent KD of MS2 coat protein; higher = weaker reporter binding
Settings: Eterna round: R107; input ligand: theophylline 20 uM
Description: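 RNA-MaP round R107: designed RNA switches with theophylline, tryptophan, arginine or FMN aptamers are transcribed on-chip within common flanks. They are titrated with SNAP-549-labelled MS2 coat protein in RNA-MaP buffer (100 mM Tris pH 7.5, 80 mM KCl, 4 mM MgCl2), without ligand or with the indicated ligand. Median apparent KD per design.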

In order of rising “apparent KD of MS2 coat protein” value:
1. AGCACUGUGACGGCCGCCACUAUAUUAGGGUGGUCAGGUUCAUAAAUACAUGAGGAUCACCCAUGUAGGACCGGGUCUCAGUGCA [Omei Trp Exc B A v3]  13.8 nM
2. AAUGUAUGGCACAUGAGGAUCACCCAUGUGCGAGGACCGGUACGGCCGCCACUCGGUCCUGGGUUCUUAUUACUAUACAUUAAUG [XTryp A #15]  16 nM
3. GGGCAAGAGGGAAGGAGCGUCGGCUGAGUAACAUGAGGAUCACCCAUGUAGCACAUAGUGUGGCAGGUAGGUCGCCCUCUGCCCU [SS-ArgB7]  16.9 nM
4. AUAUAUACAUGAGGAUCACCCAUGUUAUUUCGAGGACCGGUACGGCCGCCACUCGAUAGAGUGGAAGUAACAUUUGUUAGAUGAU [JR_SSTryptoA_Sub013]  17 nM
5. GCUAGGUCAUCGGCCGCCACUAACGACGGUUCGAACAUGAGGAUCACCCAUGUGCCACAUGCGCAUAGGACCGGGAUGACCUAGC [SSTB NP+V+V2 #6]  24.3 nM
6. AUAACAUGAGGAUCACCCAUGUAAGCAGAUACCAGCUAGGAAACUAGCCCUUGGCAGCUGCAAUCAUGGGUGUUUGCAGCUGCAA [(M1)-(M2)-(T1)-(T2)-(M)'-(T)'_Design2]  36.9 nM
7. GACAUGAGGAUCACCCAUGUACCGCGAGAAGGAGCGCGGAUAAACGCAGGUAGGUCGCUCGUGGGCUUAUAUUCAAUUGUAAGCU [Usence]  43.1 nM
8. CAAAUAAGAACAAACAAAUAACGGUUUUCGCGAGGACCGGUACGGCCGCCACUCGUGUGAAAUAACACAUGAGGAUCACCCAUGU [3'end-1]  44.6 nM
9. UGGACGCAACGAGCACGAGGUCGGCAGCUACGAGGACCGGUACGGCCGCCACUCGAGUUACGACAUGAGGAUCACCCAUGUAAGG [theeternabot_exclusion_MS2_Trp_A_45]  61.1 nM
10. UGACAGAUAACCGCUGGUGCUCUUGAGUUGCGAGGACCGGUACGGCCGCCACUCGACAACAUGAGGAUCACCCAUGUUGCGGGUC [Soleeror]  89.5 nM
11. GUAGGUCACCUCAUGAGACCUACCCUGGAAGGAGCGAGCGAAAGCUCAGGUAGGUCGCCAGAAACAUGAGGAUCACCCAUGUAAU [(A)''-(M)'-(A)'-(Arg1)-(Arg2)-(M1)-(M2)_Design3]  150 nM
12. UGUAUGUGAUCUGAUACCAGUCCAACUGGUAAACCAUGAGGAUCACCCAUGGAAAAUUGGGACCCUUGGCAGCAGAUCGCAUACU  236 nM

Same assay, conditions: Eterna round: R107; input ligand: theophylline 2 mM

In order of rising “apparent KD of MS2 coat protein” value:
1. UAUCGUCAGACGGCCGCCACUAGAACAUGAGGAUCACCCAUGUAAGUGGCCGGUCUCCUCAUGACUAGGACCGGGUCUGACGAAU [(Trp1)-(Ms2)-(T)'-(M)'-(Trp2)_Design18]  10.9 nM
2. AGCACUGUGACGGCCGCCACUAUAUUAGGGUGGUCAGGUUCAUAAAUACAUGAGGAUCACCCAUGUAGGACCGGGUCUCAGUGCA [Omei Trp Exc B A v3]  12.3 nM
3. ACGUAAUGCGGAAGGAGCGUCAUUUUAAAACAUGAGGAUCACCCAUGUAAUAUUUUUGUGUGACAGGUAGGUCGCCGAAGUACGA [#07 Same State - Arginine B]  14.4 nM
4. GGCGCGAGCCAACAUGAGGAUCACCCAUGUCGAGGACCGGUACGGCCGCCACUCGAACGAGUGGCGCGCGCGCGCGCGCGCGCGC [Vaa]  19 nM
5. UGUAUGUGAUCUGAUACCAGUCCAACUGGUAAACCAUGAGGAUCACCCAUGGAAAAUUGGGACCCUUGGCAGCAGAUCGCAUACU  20.9 nM
6. UAUCCACAUGAGGAUCACCCAUGUAAGGAAGGAGCGGUGAAUGCACCAGGUAGGUCGCCUUGCUGAGGACAGCCGGUGGAUUCGU [Exclusion - Arginine A (Freestyle 24)]  21.9 nM
7. ACCUGUACGAAAAGUGCAGGACACGGAAUACGAGGACCGGUACGGCCGCCACUCGGAACCUGAGGAUCACCCUGGUAAAACCGUG [TrypAS 13 #AlternativeMS2 #Zipper #StaticStem]  24 nM
8. UUCACAUGAUCUGAAUAUACAGAAAAGAAACGAGGACCGGUACGGCCGCCACUCGUGCCGGAAACAUGAGGAUCACCCAUGUGUU [AK1.3 Exclusion TrypA mod IceBolt]  26.2 nM
9. ACAUGAAUAUCAUCUAUUUAUUGUACUGAAGGAGCGUCCAUGAGGACAGGUAGGUCGCAGUGUAAAACAUGAGGAUCACCCAUGU [Same State - Arginine A #1]  29 nM
10. CCAUAAGUACCGGUCCUCAGAUCCUCAUGACGAGGACCGGUACGGCCGCCACUCGAAACAUGAGGAUCACCCAUGUAAUAAUAUU [Brourdmod14]  31.1 nM
11. UAGCGAUAAUCUGAUACCAGACGUGUACUCUCCUCAGACAUGAGCAUCAGCCAUGUAUGCGUCCCUUGGCAGCAGAGAUAGGAGA [Theo B Ex t5b]  36.7 nM
12. CAAAUAAGAACAAACAAAUAACGGUUUUCGCGAGGACCGGUACGGCCGCCACUCGUGUGAAAUAACACAUGAGGAUCACCCAUGU [3'end-1]  47.9 nM
13. UUUACGGGAAACCGAACUAAACAAAGGGAAGGAGCGCCAAACAAGGCAGGUAGGUCGCCCACAUGAGGAUCACCCAUGUGUUGGG [Exclusion Arginine A GF 25]  64 nM
14. UUGGGUUUGUGAAGGAGCGGGAAAGAUAUAUAUUUAAUCCUAACAUGAGGAUCACCCAUGUCCCAGGUAGGUCGCGCGGGUUUGG [12.O]  64.3 nM
15. AAAUAAAUAACUGAUACCAGUGGACUGACAUGAGGAUCACCCAUGUUGGGUUUUGUUGUCCACCCUUGGCAGCAGGGAUAUAAAA [#24 Exclusion-TheophyllineB]  70.9 nM
16. GUAUAUAUGCGAAGGAGCGGGAAAUAUAUAUAUAUAAUCCUAACAUGAGGAUCACCCAUGUCCCAGGUAGGUCGCGCAUAUAUAU [12.B]  83.6 nM
17. AAAAGUAGGUCCAAUAAAACUACAUGUGAAGGAGCGCCCGAAAGGGCAGGUAGGUCGCACAUGAGGAUCACCCAUGUCCUACAAA [ArgEX 7 #OpenEnded]  86.1 nM
18. UGACAGAUAACCGCUGGUGCUCUUGAGUUGCGAGGACCGGUACGGCCGCCACUCGACAACAUGAGGAUCACCCAUGUUGCGGGUC [Soleeror]  146 nM
19. CGUAUUACGAAAGUAGUACGUAGUUCGAGUCGAGGACCGGUACGGCCGCCACUCGGACAUGAGGAUCACCCAUGUAGCGAAAGCU [Tryptophan A 23]  161 nM
20. GUAGGUCACCUCAUGAGACCUACCCUGGAAGGAGCGAGCGAAAGCUCAGGUAGGUCGCCAGAAACAUGAGGAUCACCCAUGUAAU [(A)''-(M)'-(A)'-(Arg1)-(Arg2)-(M1)-(M2)_Design3]  190 nM
21. ACAUGAGGAUCACCCAUGUCAGGGCACGAUACCAGCUGAUCCGGUGGCCCUUGGCAGCGUGACGUUUGGUCCCGCGGAUCACACG [xxmullin]  334 nM
22. AGCGUAUAGACGGAUACCAGCGCCGAUUAACAUGAGGAUCACCCAUGUAGUGUGGGUGGACGCCCUUGGCAGCCGAGUAUAGGUA [#07 Exclusion-TheophyllineB]  360 nM
